± gives the standard deviation of the averaged measurements.
What follows are sequences tested on Saccharomyces cerevisiae (assay: protein stability index of tFT-peptide fusion (C-terminal peptide) (PSI (0-1 scale)); higher = more stable (slower turnover)). Details: genetic background: wild type; temperature: 30 C.
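Also: PSI is a weighted mean of sequencing reads over stability bins, variants kept only with over 10 reads, mCherry proximal and sfGFP distal, peptide attached via GGGS linker.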

| Sequence | protein stability index |
| --- | --- |
| SPLSPPPPRLSA | 0.723 ± 0.061 |
| SPPCPPPLAPPP | 0.758 ± 0.044 |
| SPPFPRPCPFTP | 0.644 ± 0.086 |
| SPPHPPPLLLPP | 0.655 ± 0.066 |
| SPPHSPPWPLSL | 0.691 ± 0.052 |
| SPPLGFAPPSRS | 0.853 ± 0.046 |
| SPPLHTFSLPFY | 0.669 ± 0.021 |
| SPPLLPGVLSES | 0.645 ± 0.055 |
| SPPLPKFPPAIP | 0.689 ± 0.021 |
| SPPLRPLSDLTP | 0.692 ± 0.085 |
| SPPPAPPPISPS | 0.708 ± 0.15 |
| SPPPFFSPSLPP | 0.65 ± 0.09 |
| SPPPFPPSPSPP | 0.715 ± 0.039 |
| SPPPGLSVILLH | 0.6 ± 0.054 |
| SPPPHPVHPVPL | 0.611 ± 0.019 |
| SPPPISIYPPFR | 0.668 ± 0.024 |
| SPPPLPLPPPAP | 0.695 ± 0.013 |
| SPPPNPRRPVPL | 0.6916 ± 0.0023 |
| SPPPPLPPPLPP | 0.52453 ± 0.00047 |
| SPPPPPPPPFPL | 0.672 ± 0.033 |
| SPPPPRLPSHPS | 0.613 ± 0.14 |
| SPPPPSCRHSPL | 0.741 ± 0.011 |
| SPPPSPPTVLPI | 0.683 ± 0.022 |
| SPPPSSPPPFPR | 0.639 ± 0.026 |
| SPPPTDPPQPPL | 0.7035 ± 0.0018 |
| SPPRPPAPPLLP | 0.676 ± 0.011 |

| Sequence | protein stability index |
| --- | --- |
| SPPRPPPSPTPL | 0.771 ± 0.033 |
| SPPRPPVLSPGH | 0.68 ± 0.085 |
| SPPSATTLRAPS | 0.641 ± 0.037 |
| SPPSFFRATRSN | 0.644 ± 0.096 |
| SPPSFLSFFCAP | 0.755 ± 0.14 |
| SPPSLPPLPPRF | 0.702 ± 0.016 |
| SPPSPLRPPPPS | 0.7 ± 0.01 |
| SPPSPRLPPPLL | 0.77 ± 0.046 |
| SPPTPPLAPLSP | 0.656 ± 0.042 |
| SPPTPPPSPPFL | 0.523 ± 0.012 |
| SPPTPPTSICPS | 0.705 ± 0.03 |
| SPRHAGSSAWRP | 0.674 ± 0.064 |
| SPRPDSVLLRSP | 0.723 ± 0.025 |
| SPRPLPLPLPTS | 0.682 ± 0.1 |
| SPRSLLTPHPHM | 0.686 ± 0.041 |
| SPRSSPLPSPPP | 0.766 ± 0.026 |
| SPSFDLLFSPFD | 0.778 ± 0.01 |
| SPSPAPPTRSPS | 0.696 ± 0.023 |
| SPSPRLSFFLPS | 0.727 ± 0.026 |
| SPSRVSYFFFFS | 0.641 ± 0.059 |
| SPSSTSPAPFPL | 0.672 ± 0.14 |
| SPTLNRSLPVPS | 0.654 ± 0.045 |
| SPTPINALRPPT | 0.695 ± 0.032 |
| SPTPLLPLASSP | 0.695 ± 0.052 |
| SPTPPPPAPPPP | 0.645 ± 0.044 |
| SPTPPPPSPLAP | 0.726 ± 0.059 |

| Sequence | protein stability index |
| --- | --- |
| SPTRSPPRPLPP | 0.649 ± 0.031 |
| SPTSLPLSMPTR | 0.724 ± 0.1 |
| SPVGRRTLPSGF | 0.692 ± 0.023 |
| SPWFPLPSFPLA | 0.73 ± 0.029 |
| SQGDVLLFMFLW | 0.548 ± 0.033 |
| SQGSCCTALDVA | 0.675 ± 0.046 |
| SQLEPNNVQVTT | 0.68 ± 0.0069 |
| SQLRSSTSARYV | 0.692 ± 0.14 |
| SQPLPNRLKTRG | 0.695 ± 0.032 |
| SQPNRESQNTFN | 0.711 ± 0.052 |
| SQTEAGSICTLP | 0.676 ± 0.05 |
| SRDMGYFFPKLK | 0.655 ± 0.073 |
| SRFDAGYRGTIT | 0.68 ± 0.034 |
| SRGMERIWEFGR | 0.612 ± 0.036 |
| SRGNYKLIWSDT | 0.731 ± 0.093 |
| SRHWCHDTGTLT | 0.7 ± 0.012 |
| SRIGNADAAQGM | 0.732 ± 0.042 |
| SRKSDTMPSYPL | 0.791 ± 0.26 |
| SRLQIRIRINEV | 0.572 ± 0.032 |
| SRLVCSTLHWRD | 0.699 ± 0.021 |
| SRNRYSSPPVFI | 0.644 ± 0.039 |
| SRPISCSLPCCV | 0.646 ± 0.054 |
| SRPLVPSPPSPV | 0.663 ± 0.02 |
| SRPPPYAPPSPP | 0.716 ± 0.01 |
| SRPRLPPSPCLF | 0.631 ± 0.032 |
| SRPRPPVTPPSE | 0.648 ± 0.054 |

| Sequence | protein stability index |
| --- | --- |
| SRPSPPPRRPLG | 0.759 ± 0.067 |
| SRRAPPPLYLPL | 0.699 ± 0.067 |
| SRSAQAGFKVFN | 0.712 ± 0.2 |
| SRSFVPRNSPRI | 0.6609 ± 0.0051 |
| SRSRPSRTLPLD | 0.695 ± 0.022 |
| SRSSASTKRNRW | 0.701 ± 0.096 |
| SRSSRINLMRRW | 0.674 ± 0.021 |
| SRVLLPPQTLLL | 0.573 ± 0.035 |
| SRVVSPLFNLCL | 0.692 ± 0.018 |
| SRVWACCGVIGV | 0.667 ± 0.067 |
| SRWHVCGWYKRR | 0.682 ± 0.016 |
| SRWWSRPRYRDG | 0.752 ± 0.017 |
| SRYGKVIRKKHE | 0.756 ± 0.021 |
| SSDLTKKCNRLR | 0.673 ± 0.023 |
| SSFCWAGWGGVC | 0.778 ± 0.059 |
| SSGRWLFLPPCP | 0.899 ± 0.13 |
| SSLGLFISTASV | 0.664 ± 0.042 |
| SSLIGHTLRPLV | 0.686 ± 0.022 |
| SSLLSLPLRCSF | 0.717 ± 0.039 |
| SSLPSFPTKCPF | 0.71 ± 0.051 |
| SSLPSTGPRPLH | 0.582 ± 0.038 |
| SSNVVLYHSCSQ | 0.65 ± 0.018 |
| SSPARPTRTSPA | 0.652 ± 0.061 |
| SSPDLGPVCVPC | 0.647 ± 0.016 |
| SSPFCPLFQNPL | 0.757 ± 0.056 |
| SSPLPHPSFSPS | 0.689 ± 0.017 |

| Sequence | protein stability index |
| --- | --- |
| SSPLRLAPTEPS | 0.6927 ± 0.0039 |
| SSPLRVLGPESG | 0.689 ± 0.062 |
| SSPPPPPPPPSP | 0.746 ± 0.053 |
| SSPPTHAPPLPP | 0.688 ± 0.017 |
| SSPSPAPPPPRP | 0.738 ± 0.069 |
| SSQLKMESLFII | 0.624 ± 0.064 |
| SSQRPRCTFVLL | 0.684 ± 0.031 |
| SSRPPPVLTPAR | 0.745 ± 0.044 |
| SSRSQTVRTFAL | 0.689 ± 0.068 |
| SSSFLVLSSHFI | 0.701 ± 0.028 |
| SSSPLPPPRLPP | 0.7039 ± 0.0016 |
| SSSPPPPSLAPP | 0.693 ± 0.0025 |
| SSTLPVYLSTTL | 0.662 ± 0.023 |
| SSTSPPPVTPPD | 0.625 ± 0.0096 |
| SSVCPWACPPPP | 0.666 ± 0.1 |
| SSVVCGPGVLGV | 0.729 ± 0.077 |
| STAEFLDFKMTT | 0.691 ± 0.05 |
| STAPRYNGRKYS | 0.702 ± 0.069 |
| STFASLRPLFFS | 0.6128 ± 0.0012 |
| STGACCGTVRLL | 0.642 ± 0.0085 |
| STGDWKLKFSKF | 0.765 ± 0.066 |
| STGLITYNYSVC | 0.648 ± 0.024 |
| STGVGGPCGRTS | 0.617 ± 0.055 |
| STKVEIKKRDSR | 0.715 ± 0.18 |
| STLPPSRLSSPL | 0.638 ± 0.017 |
| STLRGTTESERK | 0.665 ± 0.057 |

| Sequence | protein stability index |
| --- | --- |
| STLVHSDESQLA | 0.633 ± 0.092 |
| STNLITPPITNI | 0.677 ± 0.011 |
| STPLPPPTPLPA | 0.723 ± 0.029 |
| STPPCRPFMADL | 0.619 ± 0.0035 |
| STPSLPPPPPSS | 0.6806 ± 0.006 |
| STSDAFLTFPLQ | 0.678 ± 0.051 |
| STVSRHPSSPLP | 0.737 ± 0.039 |
| SVAAGCGHGGGG | 0.657 ± 0.011 |
| SVAGDEGDRLFR | 0.686 ± 0.022 |
| SVALSSPSRYCS | 0.7137 ± 0.00077 |
| SVEAGHVAERES | 0.732 ± 0.061 |
| SVGGGGGAVGGG | 0.68 ± 0.007 |
| SVGGGRWRYGGR | 0.662 ± 0.04 |
| SVGGWIARTAIV | 0.661 ± 0.011 |
| SVGHPAAVHHAR | 0.675 ± 0.068 |
| SVGRPVACLFVH | 0.5115 ± 0.0019 |
| SVLAIASVIGCL | 0.598 ± 0.032 |
| SVLAVSFLSLLV | 0.636 ± 0.04 |
| SVLVTASSFLYF | 0.649 ± 0.027 |
| SVMWEARTEDGS | 0.756 ± 0.043 |
| SVNHVDIANSIL | 0.647 ± 0.011 |
| SVNWVWNSVFDR | 0.6826 ± 0.0024 |
| SVPPPLSPPPPP | 0.668 ± 0.018 |
| SVRWFLIGCGGA | 0.579 ± 0.048 |
| SVSLVQRSVCLD | 0.71 ± 0.021 |
| SVSMEGCVSVRG | 0.7009 ± 0.0036 |

| Sequence | protein stability index |
| --- | --- |
| SVSPLSSSTLTA | 0.65 ± 0.019 |
| SVSSSVGRGLRV | 0.711 ± 0.014 |
| SVVSWRGRNRSV | 0.864 ± 0.065 |
| SVVVGTVFCRSW | 0.615 ± 0.015 |
| SVWCRRRRVTNS | 0.5825 ± 0.0054 |
| SVWCRWGWSDWG | 0.795 ± 0.051 |
| SVWGIVWRGNIV | 0.704 ± 0.024 |
| SVWLISPRPLSV | 0.5639 ± 0.0032 |
| SVYCVLSRGNRL | 0.687 ± 0.1 |
| SWAGGRWRRVPV | 0.658 ± 0.04 |
| SWEIGHLLPGTD | 0.6671 ± 0.0048 |
| SWFTHTQSVRCS | 0.515 ± 0.014 |
| SWMDRGGAYSGI | 0.731 ± 0.11 |
| SWPSLDLVSRMQ | 0.676 ± 0.038 |
| TAKQDSGVSTPV | 0.732 ± 0.12 |
| TAMNNGNSIHKL | 0.682 ± 0.041 |
| TASKHINYKCLA | 0.711 ± 0.16 |
| TATYCFNALRRS | 0.72 ± 0.052 |
| TAVPPLFARTWQ | 0.6786 ± 0.0049 |
| TCVRHKVQKSRE | 0.688 ± 0.058 |
| TDWGLTPRGRVT | 0.777 ± 0.062 |
| TEHLLTRGRRNT | 0.64 ± 0.032 |
| TESGKEKLDVIS | 0.689 ± 0.007 |
| TEYHIVTLPRRC | 0.625 ± 0.076 |
| TFARMYRKGSED | 0.686 ± 0.0077 |
| TFFSAPLLPSIP | 0.73783 ± 0.00011 |

| Sequence | protein stability index |
| --- | --- |
| TFLPAPSPTSPP | 0.724 ± 0.032 |
| TFLRGSILLVSP | 0.617 ± 0.059 |
| TFPHSWHISSVP | 0.677 ± 0.024 |
| TFPPLLFVCSLL | 0.594 ± 0.0078 |
| TGDNNRGKRDYD | 0.678 ± 0.024 |
| TGKRADGGAEGG | 0.686 ± 0.0086 |
| TGRAPGSDVLAS | 0.7139 ± 0.0029 |
| TGREGARVGIGR | 0.687 ± 0.01 |
| TGREWCFERGCW | 0.842 ± 0.14 |
| TGRNIGRVKIYL | 0.665 ± 0.049 |
| TGSRGPHRKPPD | 0.691 ± 0.0077 |
| THFPFPVLFSLP | 0.592 ± 0.03 |
| THSPSPTTAPIP | 0.688 ± 0.011 |
| THTEWVQFIRWY | 0.733 ± 0.073 |
| TIETKVNSKDDS | 0.735 ± 0.031 |
| TIIPRHTFLPAP | 0.723 ± 0.036 |
| TIKNKKRKPKKK | 0.702 ± 0.044 |
| TILAGSSRGTLR | 0.659 ± 0.061 |
| TINVWFARTNPD | 0.7403 ± 0.0048 |
| TIQPSVTNPTLN | 0.686 ± 0.04 |

— the supplement of paper PMC10724198
